Measurements taken from the RNAGym collection of RNA variant scans (doi:10.1073/pnas.2313332121).
This sample holds only a part of the variants without activity.

B1: TPR 5TU (parent)
chain: GGAUCUUCUCGAUCUAACAAAAAAGACAAAUCUGCCACAAAGCUUGAGAGCAUCUUCGGAUGCAGAGGCGGCAGCCUUCGGUGGCGCGAUAGCGCCAACGUUCUCAACUAUGACACGCAAAACGCGUGCUCCGUUGAAUGGAGUUUAUCAUG

Variants of: B1
Assay: polymerase ribozyme fitness, log enrichment relative to wild type (log ratio); higher = more active; in vitro selection for triplet polymerase activity
In short: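 Both subunits of a heterodimeric triplet polymerase ribozyme were given their own mutant library, built by PCR and transcribed. Each library was annealed with a biotinylated primer, the partner subunit and triplets, incubated frozen at −7 °C, and its extended constructs gel-excised, captured on streptavidin beads and amplified by RT-PCR, all in one round done in triplicate. Fitness is the logarithm of genotype enrichment relative to wild-type enrichment, with replicates averaged by inverse-variance weighting. That logarithm is base 2, and Illumina-sequenced genotypes needed ≥10 input reads and ≥1 read per output.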

| Variant | polymerase ribozyme fitness (log ratio) |
| --- | --- |
| U55A A91U G136A | ≤ -4.2 |
| U56A C57A C85U C87U U144A U146G | ≤ -4.2 |
| U56A A107U | -2.87 |
| U56A G124C | -1.68 |
| U55A C79U G83A C93A A97C A138U | ≤ -4.2 |
| U55A G59C C103U U104G | -3.29 |
| C54U G58A A64C G71A | ≤ -4.2 |
| C54U G92U A147U | 0.0812 |
| U56A G81A G126U U135C A138C G141C | ≤ -4.2 |
| C54U U56A G133C | -1.7 |
| U55G C69A A97U A119U G141A | -1.39 |
| U55A C149U | -1.55 |
| U56G G84A A91G A115G | -4.1 |
| C57A C129U G141A | ≤ -4.2 |
| C54U U151C | -3.65 |
| U55G G94A | -1.43 |
| U56A U145G | -0.287 |
| C57A A107C C125A G133A G136A U151A | ≤ -4.2 |
| U56G G92U | -2.1 |
| U56G G58A C63G U101G A120U | -2.56 |
| U55G G58C | -0.558 |
| C54U G84U | -2.22 |
| U55A U148C | -1.05 |
| C54U C93U C105G G126C | -2.01 |

| Variant | polymerase ribozyme fitness (log ratio) |
| --- | --- |
| U56G G71C C123G | -3.58 |
| U56A U90G | ≤ -4.2 |
| U56A U78A A121C | ≤ -4.2 |
| U55G G83A A115C C123U G136U | -2.92 |
| U55G G67C U78G G83U C93A U102A A121C | ≤ -4.2 |
| U55A A66U C79U G80C C87G C116U U145G | ≤ -4.2 |
| U55A C85A C125A | -1.75 |
| U55G C75G C76G G84U C118A U139C | ≤ -4.2 |
| U55C C72U A150U | 0.059 |
| U56A G83C A122G G152U | -3.94 |
| U55A A137G G141A | -1.96 |
| U55C G70A | -3.5 |
| U55G G80A C87U | -0.574 |
| U56C C93U C114G A119G | -3.79 |
| C54U C79U A115G A120G A122U G141U | ≤ -4.2 |
| U55A C63U C85U C105U | 0.719 |
| U56G U148G | -3.89 |
| U56G C85A | -2.05 |
| U56G C85U | -1.42 |
| C54U C95U G133C | -2.19 |
| C57A G86U | -1.32 |
| U55A A91G | -2.86 |
| U55C U61A U82A | -2.36 |
| U55A U56A G71A U82G U102G | ≤ -4.2 |

| Variant | polymerase ribozyme fitness (log ratio) |
| --- | --- |
| U55G U90A | ≤ -4.2 |
| U56G G65C G67C C85A C93G C118U C149A | ≤ -4.2 |
| U55A G88U | -4.14 |
| U55A G141C | -0.199 |
| C54U G71C C116U G136A U146C | -3.51 |
| C57A A64C C129G | ≤ -4.2 |
| U56A G83U | -0.976 |
| U55G A98G | -0.84 |
| U55A G71U G117A | -3.07 |
| U56C G83A C87G C123U G141A | ≤ -4.2 |
| U56A U61G | -1.7 |
| U56A U61A | -1.51 |
| U56A G62A A97G C103A | -3.45 |
| U55G A91U A106G G117U | -4.18 |
| U56G A60C G81A G94U A106G | -3.84 |
| C54U U61A A106G G152C | ≤ -4.2 |
| U55A G84U A113C | -3.62 |
| U56A C118G A150G | -2.41 |
| U55A G58U C93G | -3.78 |
| C54U C93U A98G | -1.41 |
| U56G G59A G81U A89C G92U U139A | ≤ -4.2 |
| C54U U148C | -1.84 |
| U56A C132G A137U | -4.03 |
| C57A C93A | -2.04 |

| Variant | polymerase ribozyme fitness (log ratio) |
| --- | --- |
| C54U U56A A60U G70U A115G A150C | ≤ -4.2 |
| U56C C85G C149A | ≤ -4.2 |
| U56A G84U | -1.11 |
| U56A G84C | -1.66 |
| U56G G84C C116U | -4.17 |
| C54U C75U G84C A98U A113G C129U | ≤ -4.2 |
| U55A C57G A89U G136C | -3.69 |
| U56C G94C | 0.00198 |
| U55A U82G C96G C116U G140C | -4.17 |
| U55G C69U U78A A91U C93U G141A | ≤ -4.2 |
| U55C C85A A91C G126A | -4.06 |
| U55A G62A C96U | -2.14 |
| U56G U151C | ≤ -4.2 |
| C54U C87U C105A | -2.09 |
| U55C C93G | -3.57 |
| U56A C93U U127C | -2.73 |
| U56G G59A | -1.14 |
| U56A G58C U61A G86U C87A G100U | ≤ -4.2 |
| C57A G140A | ≤ -4.2 |
| U55A A60U U101G | -0.433 |
| C57A A89G A91G U145C U151G | ≤ -4.2 |
| U56A G81A | -0.577 |
| U55G U56A C93A C114A | ≤ -4.2 |
| U55G G86U A89G A121C A147U | -3 |

| Variant | polymerase ribozyme fitness (log ratio) |
| --- | --- |
| C54U C76U C123A U139G U146C A150C | ≤ -4.2 |
| U56A U82G C87G A91C | ≤ -4.2 |
| U56A G126U | 0.137 |
| U56A U101G | 0.0793 |
| U56A C72U C76U C85U | -1.17 |
| C57A A60G C75G A91U G136A A137G U144G | ≤ -4.2 |
| U56A G81U C93U G141C | -1.52 |
| U56A G88A | -3.78 |
| U56A C123U | 0.128 |
| U56A A73U C87G C99G | ≤ -4.2 |
| C54U G92C A121U | -0.244 |
| U55A C72A U139C | ≤ -4.2 |
| U56A C96U U101C U139G | -0.437 |
| U56G C75G C93U | -4.19 |
| U55A G94U G117U C131A G136A | ≤ -4.2 |
| C54U C72U A91U C95G A98C C103A A119G A121G | ≤ -4.2 |
| C54U G71A A97U C105U A106C | ≤ -4.2 |
| U55A C125A G141A | -4.12 |
| U56G A91G | -3.24 |
| U55A C95U C105A C108G | ≤ -4.2 |
| U56A C95A | -0.487 |
| C54U C96G | -0.994 |
| C54U C96U | -0.41 |
| U56G U78C C99G G124C C125U | -2.94 |

| Variant | polymerase ribozyme fitness (log ratio) |
| --- | --- |
| U56G G59U C87A | ≤ -4.2 |
| U55G G68U | -3.91 |
| U55G G68A | -3.69 |
| C57A A122C | -0.0129 |
| U55G U127G | -2.9 |
| U55G G83U C95U A147C | -1.88 |
| U55A C85U C103U | -0.7 |
| U55C G74C G124A | -4.12 |
| U55A C87U C93U | -4.13 |
| U55A A121C | -0.369 |
| C57A G59A G84U A97U C118G | -3.12 |
| U56A C96G | -0.228 |
| C57A A98G C123G U145G | 0.398 |
| U56G G58C U61A | -2.98 |
| U56A G58A C103A C125A | -0.231 |
| C54U G59C G83A G117U | -0.252 |
| U55A G81A G86A U109G A150G | ≤ -4.2 |
| U56G A66C G81A C87U G117A | ≤ -4.2 |
| U55A G67C C85A G86U G124U | ≤ -4.2 |
| C57A A91G U101A A142G | -4.08 |
| U55G G59C G86A C103U U146C | -2.47 |
| C57A C79U C93U A98U A147U | -3.03 |
| U56G G83A C87G C116G G140C | ≤ -4.2 |
| U55A U146A | -0.393 |

| Variant | polymerase ribozyme fitness (log ratio) |
| --- | --- |
| U55A U146G | -0.637 |
| U55G U61G C76U C87A U101G U134G G136U | ≤ -4.2 |
| U55A A107C | ≤ -4.2 |
| U56G A73G U101C A119G U148C | -4.08 |
| U56C C79U | -1.8 |
| U56A G80A U90A | ≤ -4.2 |
| U55A A89G | -1.16 |
| U55A A89C | -0.409 |
| C57A G141A G152U | -3.49 |
| U56A C75A G141A | ≤ -4.2 |
| U55G G59A | -2.25 |
| U56A C149A | -3.67 |
| U55A U56A A66C G70C C108U | ≤ -4.2 |
| U55A A73U C99U U145C | ≤ -4.2 |
| U55A C96U U127C U134C | -3.3 |
| C54U C93A A110G A137G G140C | -4.1 |
| U56G G136A | 0.0437 |
| U56A C105U C116G | -0.192 |
| U56C G58U C114U A119U | -1.67 |
| C54U G84A G92U U144A | -1.38 |
| C54U G59A G70C | -2.48 |
| U55A G100C G126U G128C | ≤ -4.2 |
| U55A C79U C85U | -3.3 |
